In patent publication US20150203577A1 (Chugai, published 2015):

T1: mouse FcγRII (mouse, UniProt P08101 30-210)
T1 construct: also called mFcγRII; mFcgRII
T1 sequence: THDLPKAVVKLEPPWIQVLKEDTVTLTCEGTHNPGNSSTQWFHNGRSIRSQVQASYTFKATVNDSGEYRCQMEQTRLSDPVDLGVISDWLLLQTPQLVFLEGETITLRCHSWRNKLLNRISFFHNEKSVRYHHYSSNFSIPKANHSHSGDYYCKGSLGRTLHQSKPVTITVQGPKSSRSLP

T2: mouse FcγRIII (mouse, UniProt P08508 31-215)
T2 construct: also called mFcγRIII; mFcgRIII
T2 chain: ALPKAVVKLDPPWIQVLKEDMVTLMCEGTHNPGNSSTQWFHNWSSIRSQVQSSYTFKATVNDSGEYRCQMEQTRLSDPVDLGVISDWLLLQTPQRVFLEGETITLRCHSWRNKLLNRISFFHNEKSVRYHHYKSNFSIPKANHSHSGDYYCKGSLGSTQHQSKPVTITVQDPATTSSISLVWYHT


Assays:
mouse FcγRII = target: T1, mouse FcγRII; assay: SPR (Biacore), antibody captured on Protein L, mFcγR as analyte
mouse FcγRIII = target: T2, mouse FcγRIII; assay: as above

Kd (mouse FcγRII) [nM] | relative mFcγRII-binding activity (mIgG1 = 1) (mouse FcγRII) [fold] | Kd (mouse FcγRIII) [nM] | relative mFcγRIII-binding activity (mIgG1 = 1) (mouse FcγRIII) [fold] | Binder
40.4 | 5.16 | 3050 | 0.12 | H237-MB832/MRAL-k0 (antibody, mouse IgG1, kappa, mouse IgG1 CH variant; copies: 2 + 2) heavy: QVQLQESGPGLVKPSETLSLTCAVSGHSISHDHAWSWVRQPPGEGLEWIGFISYSGITNYNPSLQGRVTISRDNSKNTLYLQMNSLRAEDTAVYYCARSLARTTAMDYWGEGTLVTVSSAKTTPPSVYPLAPGSAAQTNSMVTLGCLVKGYFPEPVTVTWNSGSLSSGVHTFPAVLQSDLYTLSSSVTVPSSTWPSETVTCNVAHPASSTKVDKKIVPRDCGCKPCICEPNEVELVFIFPPKPKDVLTITLTPKVTCVVVDISKDDPEVQFSWFVDDVEVHTAQTQPREEQFNSTFRSVSELPIMHQDWLNGKEFKCRVNSAAFPAYIYKTISKTKGRPKAPQVYTIPPPKEQMAKDKVSLTCMITDFFPEDITVEWQWNGQPAENYKNTQPIMDTDGSYFVYSKLNVQKSNWEAGNTFTCSVLHEGLHNHHTEKSLSHSPGK light: not shown
148 | 2.46 | 5910 | 0.09 | H237-MB884/MRAL-k0 (antibody, mouse IgG1, kappa, mouse IgG1 CH variant; copies: 2 + 2) heavy: QVQLQESGPGLVKPSETLSLTCAVSGHSISHDHAWSWVRQPPGEGLEWIGFISYSGITNYNPSLQGRVTISRDNSKNTLYLQMNSLRAEDTAVYYCARSLARTTAMDYWGEGTLVTVSSAKTTPPSVYPLAPGSAAQTNSMVTLGCLVKGYFPEPVTVTWNSGSLSSGVHTFPAVLQSDLYTLSSSVTVPSSTWPSETVTCNVAHPASSTKVDKKIVPRDCGCKPCICEPNEESLVFIFPPKPKDVLTITLTPKVTCVVVDISKDDPEVQFSWFVDDVEVHTAQTQPREEQFNSTFRSVSELPIMHQDWLNGKEFKCRVNSAAFPAPIEKTISKTKGRPKAPQVYTIPPPKEQMAKDKVSLTCMITDFFPEDITVEWQWNGQPAENYKNTQPIMDTDGSYFVYSKLNVQKSNWEAGNTFTCSVLHEGLHNHHTEKSLSHSPGK light: not shown
164 | 2.21 | 4960 | 0.11 | H237-MB883/MRAL-k0 (antibody, mouse IgG1, kappa, mouse IgG1 CH variant; copies: 2 + 2) heavy: QVQLQESGPGLVKPSETLSLTCAVSGHSISHDHAWSWVRQPPGEGLEWIGFISYSGITNYNPSLQGRVTISRDNSKNTLYLQMNSLRAEDTAVYYCARSLARTTAMDYWGEGTLVTVSSAKTTPPSVYPLAPGSAAQTNSMVTLGCLVKGYFPEPVTVTWNSGSLSSGVHTFPAVLQSDLYTLSSSVTVPSSTWPSETVTCNVAHPASSTKVDKKIVPRDCGCKPCICEPAEESLVFIFPPKPKDVLTITLTPKVTCVVVDISKDDPEVQFSWFVDDVEVHTAQTQPREEQFNSTFRSVSELPIMHQDWLNGKEFKCRVNSAAFPAPIEKTISKTKGRPKAPQVYTIPPPKEQMAKDKVSLTCMITDFFPEDITVEWQWNGQPAENYKNTQPIMDTDGSYFVYSKLNVQKSNWEAGNTFTCSVLHEGLHNHHTEKSLSHSPGK light: not shown

The next lines start with the binder.

Binder | Kd (mouse FcγRII) [nM] | relative mFcγRII-binding activity (mIgG1 = 1) (mouse FcγRII) [fold] | Kd (mouse FcγRIII) [nM] | relative mFcγRIII-binding activity (mIgG1 = 1) (mouse FcγRIII) [fold]
H237-MB793/MRAL-k0 (antibody, mouse IgG1, kappa, mouse IgG1 CH variant; copies: 2 + 2) heavy: QVQLQESGPGLVKPSETLSLTCAVSGHSISHDHAWSWVRQPPGEGLEWIGFISYSGITNYNPSLQGRVTISRDNSKNTLYLQMNSLRAEDTAVYYCARSLARTTAMDYWGEGTLVTVSSAKTTPPSVYPLAPGSAAQTNSMVTLGCLVKGYFPEPVTVTWNSGSLSSGVHTFPAVLQSDLYTLSSSVTVPSSTWPSETVTCNVAHPASSTKVDKKIVPRDCGCKPCICQPNEVEIVFIFPPKPKDVLTITLTPKVTCVVVDISKDDPEVQFSWFVDDVEVHTAQTQPREEQFNSTFRSVSELPIMHQDWLNGKEFKCRVNSAAFPAPIEKTISKTKGRPKAPQVYTIPPPKEQMAKDKVSLTCMITDFFPEDITVEWQWNGQPAENYKNTQPIMDTDGSYFVYSKLNVQKSNWEAGNTFTCSVLHEGLHNHHTEKSLSHSPGK light: not shown | 179 | 1.37 | 5500 | 0.07
H237-MB781/MRAL-k0 (antibody, mouse IgG1, kappa, mouse IgG1 CH variant; copies: 2 + 2) heavy: QVQLQESGPGLVKPSETLSLTCAVSGHSISHDHAWSWVRQPPGEGLEWIGFISYSGITNYNPSLQGRVTISRDNSKNTLYLQMNSLRAEDTAVYYCARSLARTTAMDYWGEGTLVTVSSAKTTPPSVYPLAPGSAAQTNSMVTLGCLVKGYFPEPVTVTWNSGSLSSGVHTFPAVLQSDLYTLSSSVTVPSSTWPSETVTCNVAHPASSTKVDKKIVPRDCGCKPCICEPNEVELVFIFPPKPKDVLTITLTPKVTCVVVDISKDDPEVQFSWFVDDVEVHTAQTQPREEQFNSTFRSVSELPIMHQDWLNGKEFKCRVNSAAFPKPIEKTISKTKGRPKAPQVYTIPPPKEQMAKDKVSLTCMITDFFPEDITVEWQWNGQPAENYKNTQPIMDTDGSYFVYSKLNVQKSNWEAGNTFTCSVLHEGLHNHHTEKSLSHSPGK light: not shown | 40.5 | 6.08 | 2120 | 0.19
